Consider one molecule from patent US20100303814A1 (VIVENTIA BIOTECHNOLOGIES, published 2010).

Test [1] concerns the target T1, PSPep1 (Biotin TARIRAVGLLTVISK) (human).
T1 construct: Synthetic peptide, part of the immunogen of the commercial anti-PSCA antibodies, 1823.9 amu
T1 peptide: Biotin-TARIRAVGLLTVISK
Briefly: ELISA on peptide-coated plate. The procedure: (§1) Peptide solutions were diluted 1-in-100 with Hank's buffered saline solution (HBSS) containing 0.5% formaldehyde. 100 μL of diluted peptide solution was distributed to each well in a 96-well plate. The plates were incubated at room temperature for 1 hour. The supernatant was removed and the plates were placed uncovered in a 37° C. incubator for 16-18 hours. The peptide-coated plates were placed in plastic bags and stored at 2-8° C. until required.
(§2) The plates were washed as previously described with the wash buffer (PBS containing 0.5% Tween 20). The plates were incubated with 1:6000 dilution of anti-human IgG-HRP for one hour at room temperature. The plates were washed as previously described. 100 μL of TMB substrate (TMB peroxidase substrate KPL cat# 50-76-00) was added to each well and incubated for 5-10 minutes in the dark. The reaction was terminated by adding 100 μL of 1M phosphoric acid to each well. The optical density was measured at 450 nm using an ELISA plate reader.

The target in test [2] is T2, PSPep3 (Biotin LCNASGAHALQ), negative peptide (human).
T2 construct: Synthetic peptide derived from PSCA, 1306.59 amu; also called PSPep3 (Negative)
T2 peptide: Biotin-LCNASGAHALQ
Briefly: ELISA on peptide-coated plate. The procedure: as §1, §2
(In an ELISA, binding on a coated surface is turned into a signal by an enzyme label.)

Test [3] concerns the target T3, antigen bound by VB1-213 on A-375 tumor cells.
T3 construct: Placeholder target for the KD measured on whole A-375 cells; also called A-375 carcinoma cells
Briefly: flow cytometry saturation curve on A-375 cells, Lineweaver-Burk method. The procedure: Flow cytometry was used to assess binding affinity (C. A. Benedict, A. J. MacKrell, W. F. Anderson, J. Immunol. Methods 201, 223 (1997)). A range of antibody concentrations were tested against a fixed number of tumor cells (A-375) for 2 hours to obtain a saturation curve. Values and graphical analysis were generated using Sigma Plot (Jandel Scientific, San Rafael, Calif.). The inverse of the determined median fluorescence was plotted as a function of the inverse of antibody concentration to determine KD by the Lineweaver-Burk method.
Background: In flow cytometry, cells or beads pass a laser one at a time.

Test [4] deals with T4, prostate stem cell antigen (PSCA) (human, UniProt O43653 12-83).
T4 sequence: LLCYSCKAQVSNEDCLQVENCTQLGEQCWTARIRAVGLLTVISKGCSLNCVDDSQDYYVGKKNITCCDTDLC
The experiment in a line: immunoprecipitation with VB1-213, in-solution digest, mass spectrometry. The procedure:
A pre-clearing step using protein-G sepharose alone was the first step in the purification of the antigen prior to the addition of the antibody. In certain cases, pre-clearing was performed twice to add more stringency to the assay. A total of 50 μg of antibody was used as the precipitating agent in the mixture. The antigen-antibody mixtures were nutated overnight at 4° C. using buffer conditions that mimicked physiological conditions. Care was taken to ensure that protease inhibitors were used in every step of the antigen isolation process.
The extracted peptides were concentrated and desalted using μ-C18 columns and used for MS analysis. Two distinct proteins were identified, in all three cell lines, as “Mixture1”, consisting of HnRNPG+Prostate stem cell antigen (PSCA). HnRNPG and PSCA were identified as a “Mixture1”, each with 76% and 95% sequence coverage and a highly significant combined score of 413. The sequence coverage and peptides corresponding to PSCA are shown in FIGS. 18 and 19 and Table 7 (SEQ ID NO: 18 to 22). The peptides isolated by this method corresponding to HnRNPG as shown in Table 8 (SEQ ID NO: 72 to 110).

Where no end group is shown, it is not given here. The star is where a group is joined. Biotin = O=C1N[C@H]2[C@H](CS[C@H]2CCCCC(=O)*)N1

B1: VB1-213 monoclonal antibody (antibody, human IgG1, V domains shown)
VH: EVQLLESGGGLVQPGGSLRLSCAASGFTFRSYAMSWVRQAPGKGLEWVSTISGRGVTTYYADSVKGRFTISRDNSKNTLYLQMNSLRADDTALYYCAKDRTRYYGMDVWGQGTTVTVSS
VL: SYELTQPPSVSVSPGQTASITCSGNKLGDKYACWYQQKSGQSPVLVIYQDSKRPSGIPERFSGSNSGNTATLTISGTQALDEADYYCQAWDNSTAVFGGGTKLTVLG
notes: Human IgG1, lambda monoclonal antibody from a hybridoma (lymph node cells of an ovarian cancer patient fused with MFP-2); no constant regions for the IgG as tested
Broadly, the Kd is the equilibrium constant for the complex coming apart. The low end stands for a tighter complex, the high end for a looser complex. Take B1: the binding result is “no binding” in test [1], “no binding” in test [2] and “binds” in test [4]. This molecule came in with a Kd in test [3] of 627 nM.
